Experimental data taken from the supplement of paper PMC9233669.
Variants at the floor of the assay were thinned out.

Columns and labels:
biotinyl-Leu-oxazolone = test: self-aminoacylation, catalytic enhancement (BLO) (fold over background); higher = more active; k-Seq, kA / k0A0; sequences stand for … in GGGAAUGGAUCCACAUCUACGAAUUC…UUCACUGCAGACUUGACGAAGCUG
Outline: (§1)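 Mutagenized RNA pools with a 21-nt variable region (0.43 μM) were reacted with each biotinyl-aminoacyl-oxazolone at 2–1250 μM for 90 minutes at room temperature, in 50 μL HEPES/NaCl/KCl/MgCl2/CaCl2 buffer containing 5% acetonitrile at pH 6.9–7.0. RNA captured on streptavidin was quantified by triplicate qPCR and by Illumina sequencing. The fraction reacted for each sequence was fit to a pseudo-first-order model with bootstrapping, and catalytic enhancement is the median kA divided by the uncatalyzed rate, taken as the low-activity peak of a bimodal Gaussian fit.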

biotinyl-Val-oxazolone = test: self-aminoacylation, catalytic enhancement (BVO) (fold over background); higher = more active; k-Seq, kA / k0A0; sequences stand for … in GGGAAUGGAUCCACAUCUACGAAUUC…UUCACUGCAGACUUGACGAAGCUG
Outline: as §1

biotinyl-Ile-oxazolone = test: self-aminoacylation, catalytic enhancement (BIO) (fold over background); higher = more active; k-Seq, kA / k0A0; sequences stand for … in GGGAAUGGAUCCACAUCUACGAAUUC…UUCACUGCAGACUUGACGAAGCUG
Outline: as §1

biotinyl-Phe-oxazolone = test: self-aminoacylation, catalytic enhancement (BFO) (fold over background); higher = more active; k-Seq, kA / k0A0; sequences stand for … in GGGAAUGGAUCCACAUCUACGAAUUC…UUCACUGCAGACUUGACGAAGCUG
Outline: as §1

biotinyl-Trp-oxazolone = test: self-aminoacylation, catalytic enhancement (BWO) (fold over background); higher = more active; k-Seq, kA / k0A0; sequences stand for … in GGGAAUGGAUCCACAUCUACGAAUUC…UUCACUGCAGACUUGACGAAGCUG
Outline: as §1

biotinyl-Met-oxazolone = test: self-aminoacylation, catalytic enhancement (BMO) (fold over background); higher = more active; k-Seq, kA / k0A0; sequences stand for … in GGGAAUGGAUCCACAUCUACGAAUUC…UUCACUGCAGACUUGACGAAGCUG
Outline: as §1

| Sequence | self-aminoacylation (biotinyl-Leu-oxazolone) | self-aminoacylation (biotinyl-Val-oxazolone) | self-aminoacylation (biotinyl-Ile-oxazolone) | self-aminoacylation (biotinyl-Phe-oxazolone) | self-aminoacylation (biotinyl-Trp-oxazolone) | self-aminoacylation (biotinyl-Met-oxazolone) |
| --- | --- | --- | --- | --- | --- | --- |
| AAGUUUGCUAAUAGGCUCAAG [Fam3.1 aminoacylation ribozyme variant] | 0.715 | 0.774 | 0.664 | 0.973 | 0.535 | 0.493 |
| AAGUUUGCUAAUAGUCUGAAG [Fam3.1 aminoacylation ribozyme variant] | 0.996 | 1.07 | 1.01 | 3.77 | 1.34 | 0.971 |
| CUACUUCAAACGAUCGGUCUA [Fam1A.1 aminoacylation ribozyme variant] | 0.615 | 0.731 | 0.757 | 0.678 | 0.594 | 0.744 |
| AGUCACCUAGGUCAUCGGGUA [Fam2.2 aminoacylation ribozyme variant] | 12.7 | 6.5 | 6.85 | 60 | 9.54 | 11.6 |
| AUUACCCUGGUUAUCGCGUGA [Fam2.1 aminoacylation ribozyme variant] | 11.6 | 6.04 | 4.99 | 93.6 | 13.5 | 12.4 |
| AUGUUUGCUAAUAGUGGCAAG [Fam3.1 aminoacylation ribozyme variant] | 0.588 | 0.643 | 0.646 | 1.22 | 0.491 | 0.483 |
| AUACACCUACGUCAUCGGGUG [Fam2.2 aminoacylation ribozyme variant] | 5.2 | 2.49 | 3.12 | 31.8 | 3.83 | 4.6 |
| CACUUUGCUAAUAGUCGCAAG [Fam3.1 aminoacylation ribozyme variant] | 1.38 | 1.01 | 1.41 | 0.947 | 2.22 | 1.32 |
| CUACUUCACAGAAUCGGUCUG [Fam1A.1 aminoacylation ribozyme variant] | 1.1 | 1.02 | 1.03 | 1.11 | 0.917 | 1.05 |
| AAGUUAGCUAAUAGUCGGAAG [Fam3.1 aminoacylation ribozyme variant] | 1.28 | 1.32 | 1.07 | 3.13 | 1.94 | 1.12 |
| AUUCACCUAGGCCUUCGGGUG [Fam2.2 aminoacylation ribozyme variant] | 5.19 | 3.43 | 2.49 | 19.9 | 3.83 | 3.67 |
| AAUUUUGCUAAUAGUCGUAAG [Fam3.1 aminoacylation ribozyme variant] | 1.31 | 1.44 | 1.42 | 10.9 | 4.02 | 1.11 |
| AUUACCCUGGUCUACGAGUGA [Fam2.1 aminoacylation ribozyme variant] | 6.37 | 3.68 | 3.67 | 25.5 | 7.19 | 6.17 |
| AAGUUUGCUAAAAGCCGCAAG [Fam3.1 aminoacylation ribozyme variant] | 0.63 | 0.689 | 0.613 | 1.42 | 1.08 | 0.604 |
| AAGCUUGCCAAUAGUCGCAAG [Fam3.1 aminoacylation ribozyme variant] | 2.23 | 2.42 | 2.31 | 3.44 | 3.62 | 2.48 |
| CCACACUUCAAAGAAUCGGUC [Fam1B.1 aminoacylation ribozyme variant] | 1.17 | 0.955 | 0.988 | 12.1 | 9.57 | 0.888 |
| AAGUUUACUCAUAGUCGCAAG [Fam3.1 aminoacylation ribozyme variant] | 1.8 | 1.43 | 1.65 | 2.83 | 1.88 | 1.58 |
| AAGUUUGCUAUUAGUCGAAAG [Fam3.1 aminoacylation ribozyme variant] | 0.914 | 0.834 | 1.07 | 1.06 | 0.825 | 1.18 |
| CUACUACAAACAAUCGUUCUG [Fam1A.1 aminoacylation ribozyme variant] | 0.538 | 0.649 | 0.648 | 0.604 | 0.338 | 0.468 |
| GCAAACUUCAAGCAAUCGGUC [Fam1B.1 aminoacylation ribozyme variant] | 2.47 | 2.17 | 2.13 | 21.7 | 19.5 | 2.05 |
| CUUCACCUAUGUCAUCGGGUG [Fam2.2 aminoacylation ribozyme variant] | 4.68 | 2.83 | 2.35 | 17 | 4.46 | 3.64 |
| CCACUUCAACCAAUCGGUCUG [Fam1A.1 aminoacylation ribozyme variant] | 2.76 | 2.01 | 1.68 | 73.2 | 36.4 | 1.7 |
| AUUACCAUGGUUAUCGAGUGA [Fam2.1 aminoacylation ribozyme variant] | 10.6 | 4.79 | 4.38 | 69.6 | 12.2 | 9.62 |
| AAGUUUGCAAAUAGUCGCAUG [Fam3.1 aminoacylation ribozyme variant] | 0.874 | 0.978 | 1.14 | 0.739 | 1.46 | 1.07 |
| CUAGUUCUAACAAUCGGUCUG [Fam1A.1 aminoacylation ribozyme variant] | 0.849 | 0.762 | 0.831 | 0.672 | 0.588 | 0.762 |
| UCACACUUCAAGCAAUCGGAC [Fam1B.1 aminoacylation ribozyme variant] | 0.598 | 0.821 | 0.844 | 1.56 | 0.994 | 0.732 |
